Results taken from PMC8918029 (Journal of medicinal chemistry, 2021).
Square brackets hold non-standard residues; d marks the D form. * marks the point of attachment. Boc = CC(C)(C)OC(=O)*; Aib = CC(C)(N)C(=O)O

Target: γ-secretase complex (presenilin-1, nicastrin, Aph-1, Pen-2) (UniProt Q92542 34-709; Q96BI3 1-265; Q9NZ42 1-101)
Experiment: enzyme inhibition kinetics

Ki: 1.19 ± 0.1 nM
Binder: Boc-VG[Aib]VVI[Aib]FV[Aib]GGGVFFLV-NH2 (also: hydroxyethylurea isostere (ψ) between the two Phe (15-16)) [HPI-TSA conjugate 28]
